Assay results as given in patent US6528633.

How the values were obtained:
[1] = test system: clam E3-C/cyclosome complex, activated, partially purified
[2] = test system: non-specific ubiquitin-protein ligase (E3) from clam oocyte Fraction 1A

Sequence of recombinant human Ubc4 homolog, UbcH5 (chain, as listed by the source): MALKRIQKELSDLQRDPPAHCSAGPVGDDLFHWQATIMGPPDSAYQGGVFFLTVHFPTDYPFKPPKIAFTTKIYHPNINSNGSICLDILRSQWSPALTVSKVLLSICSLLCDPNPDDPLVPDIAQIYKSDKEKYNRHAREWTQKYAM

For recombinant human Ubc4 homolog, UbcH5, the “stimulation of cyclin-ubiquitin ligation” value [1] was “UbcH5 caused some stimulation of cyclin-ubiquitin ligation by the clam E3-C/cyclosome complex, but the amount of conjugates formed and their size ... were much lower than those obtained with the recombinant clam protein” and the “ligation of 125I-ubiquitin to high molecular weight conjugates” value [2] was “UbcH5 strongly stimulated the ligation of 125I-ubiquitin to high molecular weight conjugates in the presence of non-specific E3 from clam oocytes”.
